B1: Nb12 (VHH)
VHH: QVQLVESGGGLVQPGGSLRLSCAASGFTFNRYVMNWVRQAPGKGLEWVSGISRDGSYTDYADSVKGRFTISRDNAKDTLYLQMNSLKPEDTAVYYCSKYNSVVTTPPGQGTQVTVSS
B2: Nb22 (VHH)
VHH: QVQLVESGGGLVQAGGSLRLSCTASGNSFTFYTMGWYRQAPGKQRELVASITHRDSTNYADSMKDRFTISRDNSKNTVYLQMNSLKAEDTAVYYCNLHGRTRLLGREYDYWGQGTQVTVSS

How the values were obtained:
[1] = target: photoactivated bovine rhodopsin (Bos taurus (native, rod outer segments), UniProt P02699, all-trans-retinylidene chromophore after photoisomerization; N-linked glycans at Asn2 and Asn15)
[2] = target: ground-state bovine rhodopsin (native, from rod outer segments) (bovine, UniProt P02699, 11-cis-retinylidene chromophore (Schiff base at Lys296); N-linked glycans at Asn2 and Asn15)
Chain of ground-state bovine rhodopsin (native, from rod outer segments) (P02699 whole entry): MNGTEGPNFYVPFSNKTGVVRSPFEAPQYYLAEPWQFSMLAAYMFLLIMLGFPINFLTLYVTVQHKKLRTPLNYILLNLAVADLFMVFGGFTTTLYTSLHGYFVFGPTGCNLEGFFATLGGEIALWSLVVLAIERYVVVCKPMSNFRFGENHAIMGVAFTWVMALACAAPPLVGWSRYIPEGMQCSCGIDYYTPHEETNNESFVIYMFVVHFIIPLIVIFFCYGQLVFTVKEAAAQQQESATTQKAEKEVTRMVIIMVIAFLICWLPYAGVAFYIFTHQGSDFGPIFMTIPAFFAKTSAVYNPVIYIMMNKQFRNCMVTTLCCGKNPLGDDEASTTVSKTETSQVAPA

Chain of photoactivated bovine rhodopsin (P02699 whole entry): as above

| Binder | binding result [1] | binding result [2] |
| --- | --- | --- |
| B1 | binds | binds |
| B2 | binds | binds |
